According to the supplement of paper PMC9170038:

System: K4 kissing-loop RNA reporter
Test: apparent KD of K4 kissing-loop reporter; higher = weaker reporter binding
Details: Eterna round: R107
Experimental: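 RNA-MaP round R107: designed RNA switches with theophylline, tryptophan, arginine or FMN aptamers are transcribed on-chip within common flanks. They are titrated with a labelled K4 kissing-loop RNA reporter in RNA-MaP buffer (100 mM Tris pH 7.5, 80 mM KCl, 4 mM MgCl2), without ligand or with the indicated ligand. Median apparent KD per design.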

[1] = input ligand: theophylline 20 uM
[2] = input ligand: tryptophan 2.4 mM
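Further: bound reporter read as fluorescence of individual clusters on recovered sequencing chips by microscopy, with normalized cluster intensities fitted with a binding model.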

Sequence: CACUCGGUAUCAGAUACCAGACUAUCGAUACCGAGUGUAUCGGGUAGUGAUGUUACCAUAGUCCCUUGGCAGCUGAUAUUGCAUA [Theo B SS t9b]
- apparent KD of K4 kissing-loop reporter (input ligand: FMN 200 uM): 0.0733 µM
- apparent KD of K4 kissing-loop reporter (input ligand: arginine 13.2 mM): 0.0941 µM
- apparent KD of K4 kissing-loop reporter (input ligand: none): 0.0717 µM
- apparent KD of K4 kissing-loop reporter [1]: 0.0877 µM
- apparent KD of K4 kissing-loop reporter [2]: 0.0592 µM

Sequence: CACUUACGUAGUGAUGUUACGAUCUCUGAUACCAGACAACUCUAAGUCCCUUGGCAGCAGUCAUUUUGCUUAUUAUUUACUCAAA [JR_ExcTheophyA_Sub017]
- apparent KD of K4 kissing-loop reporter (input ligand: FMN 200 uM): 0.647 µM
- apparent KD of K4 kissing-loop reporter (input ligand: arginine 13.2 mM): 0.597 µM
- apparent KD of K4 kissing-loop reporter (input ligand: none): 0.73 µM
- apparent KD of K4 kissing-loop reporter [1]: 0.663 µM
- apparent KD of K4 kissing-loop reporter [2]: 0.456 µM

Sequence: CAGCCUGGUCAGUGAUGUUGGCCGCAGGGAAAGGAUAUUGUGUUGGCAAGAAGGUUCGCUUGAUCGUUGGCCCAUGCAUGGGCCU [theeternabot_sameState_KL_FMN_A_44]
- apparent KD of K4 kissing-loop reporter (input ligand: FMN 200 uM): 0.186 µM
- apparent KD of K4 kissing-loop reporter (input ligand: arginine 13.2 mM): 0.18 µM
- apparent KD of K4 kissing-loop reporter (input ligand: none): 0.197 µM
- apparent KD of K4 kissing-loop reporter [1]: 0.28 µM
- apparent KD of K4 kissing-loop reporter [2]: 0.183 µM

Sequence: CAUACGCAUGGAGGAUAUGAGAUUACUCAUGUCAUUUAAUAUUCUCAGUGAUGUUGAGAUUUUGGCUCAGAAGGCCAUGUGUAUG [Ex FMN B 18]
- apparent KD of K4 kissing-loop reporter (input ligand: FMN 200 uM): 0.436 µM
- apparent KD of K4 kissing-loop reporter (input ligand: arginine 13.2 mM): 0.496 µM
- apparent KD of K4 kissing-loop reporter (input ligand: none): 0.534 µM
- apparent KD of K4 kissing-loop reporter [1]: 0.599 µM
- apparent KD of K4 kissing-loop reporter [2]: 0.543 µM

Sequence: CAUACGCAUGGAGGAUAUGAGAUUUCUCAUAUUAUUUAAUAUUCUCAGUGAUGUUGGGAUUUAAACUCAGAAGGCCAUGUGUAUG [Ex FMN B 7]
- apparent KD of K4 kissing-loop reporter (input ligand: FMN 200 uM): 0.259 µM
- apparent KD of K4 kissing-loop reporter (input ligand: arginine 13.2 mM): 0.159 µM
- apparent KD of K4 kissing-loop reporter (input ligand: none): 0.159 µM
- apparent KD of K4 kissing-loop reporter [1]: 0.234 µM
- apparent KD of K4 kissing-loop reporter [2]: 0.169 µM

Sequence: CAUAGACAAGUGAUGUUUGUCAUAACCGAAGGAGCGUCGUUGAAGACAGGUAGGUCGCGGAUUAAUUAAGAUUAUAUUCUUUUUA [JR_SSArginiA_Sub019]
- apparent KD of K4 kissing-loop reporter (input ligand: FMN 200 uM): 0.605 µM
- apparent KD of K4 kissing-loop reporter (input ligand: arginine 13.2 mM): 0.485 µM
- apparent KD of K4 kissing-loop reporter (input ligand: none): 0.634 µM
- apparent KD of K4 kissing-loop reporter [1]: 0.624 µM
- apparent KD of K4 kissing-loop reporter [2]: 0.505 µM

Sequence: CAUAGGAAACUAUGUUUCUCUCUUACUGAAGGAGCGCGUGAAAACGCAGGUAGGUCGCAGAAUUUGAGAGUGAUGUUCUCAUUAA [Ex Arginine A K4 14]
- apparent KD of K4 kissing-loop reporter (input ligand: FMN 200 uM): 0.119 µM
- apparent KD of K4 kissing-loop reporter (input ligand: arginine 13.2 mM): 0.211 µM
- apparent KD of K4 kissing-loop reporter (input ligand: none): 0.175 µM
- apparent KD of K4 kissing-loop reporter [1]: 0.201 µM
- apparent KD of K4 kissing-loop reporter [2]: 0.127 µM

Sequence: CAUUCAGUGAUGUUGGAAGGCGAGCGGGAUACCAGCGGAGACUCACGCCCUUGGCAGCCCACAUAUCCCAGGUAGAUAAUAGUUC [Same State - Theophylline A (Freestyle 6)]
- apparent KD of K4 kissing-loop reporter (input ligand: FMN 200 uM): 0.237 µM
- apparent KD of K4 kissing-loop reporter (input ligand: arginine 13.2 mM): 0.139 µM
- apparent KD of K4 kissing-loop reporter (input ligand: none): 0.203 µM
- apparent KD of K4 kissing-loop reporter [1]: 0.189 µM
- apparent KD of K4 kissing-loop reporter [2]: 0.188 µM

Sequence: CAUUCGAAAUGCAGUGAUGUUGCAACUGAUACCAGUAUCGAAAGAUACCCUUGGCAGCGGAAAACCGCUACGUAUUUUUUGAAUG [Ex Theophylline A K4 25]
- apparent KD of K4 kissing-loop reporter (input ligand: FMN 200 uM): 0.257 µM
- apparent KD of K4 kissing-loop reporter (input ligand: arginine 13.2 mM): 0.317 µM
- apparent KD of K4 kissing-loop reporter (input ligand: none): 0.27 µM
- apparent KD of K4 kissing-loop reporter [1]: 0.356 µM
- apparent KD of K4 kissing-loop reporter [2]: 0.253 µM

Sequence: CAUUGUACACGGUGCGAAGACCCAAUGGAUACCAGCAAUACAUUAUGCCCUUGGCAGCCAAGAGUGAUGUUCGACGGACUAGAUU [theeternabot_sameState_KL_Theo_A_4]
- apparent KD of K4 kissing-loop reporter (input ligand: FMN 200 uM): 0.249 µM
- apparent KD of K4 kissing-loop reporter (input ligand: arginine 13.2 mM): 0.175 µM
- apparent KD of K4 kissing-loop reporter (input ligand: none): 0.29 µM
- apparent KD of K4 kissing-loop reporter [1]: 0.321 µM
- apparent KD of K4 kissing-loop reporter [2]: 0.233 µM

Sequence: CCAUCGCUAUUCGAUACCAGCUACUUAGUGAUGUUAAGUUAAAAUCCAUUGUAGAUGGAAAGCCCUUGGCAGCGAAUAGUGAUGG [Theophylline B K4 22]
- apparent KD of K4 kissing-loop reporter (input ligand: FMN 200 uM): 0.44 µM
- apparent KD of K4 kissing-loop reporter (input ligand: arginine 13.2 mM): 0.398 µM
- apparent KD of K4 kissing-loop reporter (input ligand: none): 0.465 µM
- apparent KD of K4 kissing-loop reporter [1]: 0.21 µM
- apparent KD of K4 kissing-loop reporter [2]: 0.41 µM

Sequence: CCAUCGCUAUUCGAUACCAGCUACUUAGUGAUGUUAAGUUUUUACCCACUGUAGGUGGGAAGCCCUUGGCAGCGAAUAGUGAUGG [Theophylline B K4 27]
- apparent KD of K4 kissing-loop reporter (input ligand: FMN 200 uM): 0.24 µM
- apparent KD of K4 kissing-loop reporter (input ligand: arginine 13.2 mM): 0.203 µM
- apparent KD of K4 kissing-loop reporter (input ligand: none): 0.239 µM
- apparent KD of K4 kissing-loop reporter [1]: 0.151 µM
- apparent KD of K4 kissing-loop reporter [2]: 0.209 µM

Sequence: CCAUCGCUAUUCGAUACCAGUCAUAAAAUCUUUGGUUAAAUAAAGGAGUGAUGUUCCCAAGACCCUUGGCAGCGAAUAGUGAUGG [Theophylline B K4 7]
- apparent KD of K4 kissing-loop reporter (input ligand: FMN 200 uM): 0.229 µM
- apparent KD of K4 kissing-loop reporter (input ligand: arginine 13.2 mM): 0.227 µM
- apparent KD of K4 kissing-loop reporter (input ligand: none): 0.217 µM
- apparent KD of K4 kissing-loop reporter [1]: 0.266 µM
- apparent KD of K4 kissing-loop reporter [2]: 0.213 µM

Sequence: CCAUUCAUUUACGAUACCAGUCUAAUAUAUUGAAUCAAAACCCUCGCCGAGUGAUGUUCGGACCCUUGGCAGCGUCUGCGAGAGG [ddrdkmullin]
- apparent KD of K4 kissing-loop reporter (input ligand: FMN 200 uM): 0.596 µM
- apparent KD of K4 kissing-loop reporter (input ligand: arginine 13.2 mM): 0.548 µM
- apparent KD of K4 kissing-loop reporter (input ligand: none): 0.677 µM
- apparent KD of K4 kissing-loop reporter [1]: 0.543 µM
- apparent KD of K4 kissing-loop reporter [2]: 0.519 µM

Sequence: CCCAAGGGCCUACCGGUAUGAUGGACGGAUACCAGAGGCGAAAGCCUCCCUUGGCAGCCGGGUGUAGUGAUGUUACUCCGGUAGU
- apparent KD of K4 kissing-loop reporter (input ligand: FMN 200 uM): 0.0751 µM
- apparent KD of K4 kissing-loop reporter (input ligand: arginine 13.2 mM): 0.0658 µM
- apparent KD of K4 kissing-loop reporter (input ligand: none): 0.075 µM
- apparent KD of K4 kissing-loop reporter [1]: 0.0789 µM
- apparent KD of K4 kissing-loop reporter [2]: 0.072 µM

Sequence: CCGAUACAUUAUUCUACGGCCGAGAGUGAUACCAGCCAUAUUUAUGGCCCUUGGCAGCGCAGAUGCAGUGAUGUUGCAUACUUAC [Same State Theophylline A GF 19]
- apparent KD of K4 kissing-loop reporter (input ligand: FMN 200 uM): 0.0857 µM
- apparent KD of K4 kissing-loop reporter (input ligand: arginine 13.2 mM): 0.119 µM
- apparent KD of K4 kissing-loop reporter (input ligand: none): 0.0915 µM
- apparent KD of K4 kissing-loop reporter [1]: 0.115 µM
- apparent KD of K4 kissing-loop reporter [2]: 0.0737 µM
